Biological target: ryanodine receptor type 1 (RyR1), endogenous in mouse myotubes (mouse (endogenous in mouse myotubes)) (UniProt E9PZQ0)
Chain of UniProt E9PZQ0 (E9PZQ0 whole entry): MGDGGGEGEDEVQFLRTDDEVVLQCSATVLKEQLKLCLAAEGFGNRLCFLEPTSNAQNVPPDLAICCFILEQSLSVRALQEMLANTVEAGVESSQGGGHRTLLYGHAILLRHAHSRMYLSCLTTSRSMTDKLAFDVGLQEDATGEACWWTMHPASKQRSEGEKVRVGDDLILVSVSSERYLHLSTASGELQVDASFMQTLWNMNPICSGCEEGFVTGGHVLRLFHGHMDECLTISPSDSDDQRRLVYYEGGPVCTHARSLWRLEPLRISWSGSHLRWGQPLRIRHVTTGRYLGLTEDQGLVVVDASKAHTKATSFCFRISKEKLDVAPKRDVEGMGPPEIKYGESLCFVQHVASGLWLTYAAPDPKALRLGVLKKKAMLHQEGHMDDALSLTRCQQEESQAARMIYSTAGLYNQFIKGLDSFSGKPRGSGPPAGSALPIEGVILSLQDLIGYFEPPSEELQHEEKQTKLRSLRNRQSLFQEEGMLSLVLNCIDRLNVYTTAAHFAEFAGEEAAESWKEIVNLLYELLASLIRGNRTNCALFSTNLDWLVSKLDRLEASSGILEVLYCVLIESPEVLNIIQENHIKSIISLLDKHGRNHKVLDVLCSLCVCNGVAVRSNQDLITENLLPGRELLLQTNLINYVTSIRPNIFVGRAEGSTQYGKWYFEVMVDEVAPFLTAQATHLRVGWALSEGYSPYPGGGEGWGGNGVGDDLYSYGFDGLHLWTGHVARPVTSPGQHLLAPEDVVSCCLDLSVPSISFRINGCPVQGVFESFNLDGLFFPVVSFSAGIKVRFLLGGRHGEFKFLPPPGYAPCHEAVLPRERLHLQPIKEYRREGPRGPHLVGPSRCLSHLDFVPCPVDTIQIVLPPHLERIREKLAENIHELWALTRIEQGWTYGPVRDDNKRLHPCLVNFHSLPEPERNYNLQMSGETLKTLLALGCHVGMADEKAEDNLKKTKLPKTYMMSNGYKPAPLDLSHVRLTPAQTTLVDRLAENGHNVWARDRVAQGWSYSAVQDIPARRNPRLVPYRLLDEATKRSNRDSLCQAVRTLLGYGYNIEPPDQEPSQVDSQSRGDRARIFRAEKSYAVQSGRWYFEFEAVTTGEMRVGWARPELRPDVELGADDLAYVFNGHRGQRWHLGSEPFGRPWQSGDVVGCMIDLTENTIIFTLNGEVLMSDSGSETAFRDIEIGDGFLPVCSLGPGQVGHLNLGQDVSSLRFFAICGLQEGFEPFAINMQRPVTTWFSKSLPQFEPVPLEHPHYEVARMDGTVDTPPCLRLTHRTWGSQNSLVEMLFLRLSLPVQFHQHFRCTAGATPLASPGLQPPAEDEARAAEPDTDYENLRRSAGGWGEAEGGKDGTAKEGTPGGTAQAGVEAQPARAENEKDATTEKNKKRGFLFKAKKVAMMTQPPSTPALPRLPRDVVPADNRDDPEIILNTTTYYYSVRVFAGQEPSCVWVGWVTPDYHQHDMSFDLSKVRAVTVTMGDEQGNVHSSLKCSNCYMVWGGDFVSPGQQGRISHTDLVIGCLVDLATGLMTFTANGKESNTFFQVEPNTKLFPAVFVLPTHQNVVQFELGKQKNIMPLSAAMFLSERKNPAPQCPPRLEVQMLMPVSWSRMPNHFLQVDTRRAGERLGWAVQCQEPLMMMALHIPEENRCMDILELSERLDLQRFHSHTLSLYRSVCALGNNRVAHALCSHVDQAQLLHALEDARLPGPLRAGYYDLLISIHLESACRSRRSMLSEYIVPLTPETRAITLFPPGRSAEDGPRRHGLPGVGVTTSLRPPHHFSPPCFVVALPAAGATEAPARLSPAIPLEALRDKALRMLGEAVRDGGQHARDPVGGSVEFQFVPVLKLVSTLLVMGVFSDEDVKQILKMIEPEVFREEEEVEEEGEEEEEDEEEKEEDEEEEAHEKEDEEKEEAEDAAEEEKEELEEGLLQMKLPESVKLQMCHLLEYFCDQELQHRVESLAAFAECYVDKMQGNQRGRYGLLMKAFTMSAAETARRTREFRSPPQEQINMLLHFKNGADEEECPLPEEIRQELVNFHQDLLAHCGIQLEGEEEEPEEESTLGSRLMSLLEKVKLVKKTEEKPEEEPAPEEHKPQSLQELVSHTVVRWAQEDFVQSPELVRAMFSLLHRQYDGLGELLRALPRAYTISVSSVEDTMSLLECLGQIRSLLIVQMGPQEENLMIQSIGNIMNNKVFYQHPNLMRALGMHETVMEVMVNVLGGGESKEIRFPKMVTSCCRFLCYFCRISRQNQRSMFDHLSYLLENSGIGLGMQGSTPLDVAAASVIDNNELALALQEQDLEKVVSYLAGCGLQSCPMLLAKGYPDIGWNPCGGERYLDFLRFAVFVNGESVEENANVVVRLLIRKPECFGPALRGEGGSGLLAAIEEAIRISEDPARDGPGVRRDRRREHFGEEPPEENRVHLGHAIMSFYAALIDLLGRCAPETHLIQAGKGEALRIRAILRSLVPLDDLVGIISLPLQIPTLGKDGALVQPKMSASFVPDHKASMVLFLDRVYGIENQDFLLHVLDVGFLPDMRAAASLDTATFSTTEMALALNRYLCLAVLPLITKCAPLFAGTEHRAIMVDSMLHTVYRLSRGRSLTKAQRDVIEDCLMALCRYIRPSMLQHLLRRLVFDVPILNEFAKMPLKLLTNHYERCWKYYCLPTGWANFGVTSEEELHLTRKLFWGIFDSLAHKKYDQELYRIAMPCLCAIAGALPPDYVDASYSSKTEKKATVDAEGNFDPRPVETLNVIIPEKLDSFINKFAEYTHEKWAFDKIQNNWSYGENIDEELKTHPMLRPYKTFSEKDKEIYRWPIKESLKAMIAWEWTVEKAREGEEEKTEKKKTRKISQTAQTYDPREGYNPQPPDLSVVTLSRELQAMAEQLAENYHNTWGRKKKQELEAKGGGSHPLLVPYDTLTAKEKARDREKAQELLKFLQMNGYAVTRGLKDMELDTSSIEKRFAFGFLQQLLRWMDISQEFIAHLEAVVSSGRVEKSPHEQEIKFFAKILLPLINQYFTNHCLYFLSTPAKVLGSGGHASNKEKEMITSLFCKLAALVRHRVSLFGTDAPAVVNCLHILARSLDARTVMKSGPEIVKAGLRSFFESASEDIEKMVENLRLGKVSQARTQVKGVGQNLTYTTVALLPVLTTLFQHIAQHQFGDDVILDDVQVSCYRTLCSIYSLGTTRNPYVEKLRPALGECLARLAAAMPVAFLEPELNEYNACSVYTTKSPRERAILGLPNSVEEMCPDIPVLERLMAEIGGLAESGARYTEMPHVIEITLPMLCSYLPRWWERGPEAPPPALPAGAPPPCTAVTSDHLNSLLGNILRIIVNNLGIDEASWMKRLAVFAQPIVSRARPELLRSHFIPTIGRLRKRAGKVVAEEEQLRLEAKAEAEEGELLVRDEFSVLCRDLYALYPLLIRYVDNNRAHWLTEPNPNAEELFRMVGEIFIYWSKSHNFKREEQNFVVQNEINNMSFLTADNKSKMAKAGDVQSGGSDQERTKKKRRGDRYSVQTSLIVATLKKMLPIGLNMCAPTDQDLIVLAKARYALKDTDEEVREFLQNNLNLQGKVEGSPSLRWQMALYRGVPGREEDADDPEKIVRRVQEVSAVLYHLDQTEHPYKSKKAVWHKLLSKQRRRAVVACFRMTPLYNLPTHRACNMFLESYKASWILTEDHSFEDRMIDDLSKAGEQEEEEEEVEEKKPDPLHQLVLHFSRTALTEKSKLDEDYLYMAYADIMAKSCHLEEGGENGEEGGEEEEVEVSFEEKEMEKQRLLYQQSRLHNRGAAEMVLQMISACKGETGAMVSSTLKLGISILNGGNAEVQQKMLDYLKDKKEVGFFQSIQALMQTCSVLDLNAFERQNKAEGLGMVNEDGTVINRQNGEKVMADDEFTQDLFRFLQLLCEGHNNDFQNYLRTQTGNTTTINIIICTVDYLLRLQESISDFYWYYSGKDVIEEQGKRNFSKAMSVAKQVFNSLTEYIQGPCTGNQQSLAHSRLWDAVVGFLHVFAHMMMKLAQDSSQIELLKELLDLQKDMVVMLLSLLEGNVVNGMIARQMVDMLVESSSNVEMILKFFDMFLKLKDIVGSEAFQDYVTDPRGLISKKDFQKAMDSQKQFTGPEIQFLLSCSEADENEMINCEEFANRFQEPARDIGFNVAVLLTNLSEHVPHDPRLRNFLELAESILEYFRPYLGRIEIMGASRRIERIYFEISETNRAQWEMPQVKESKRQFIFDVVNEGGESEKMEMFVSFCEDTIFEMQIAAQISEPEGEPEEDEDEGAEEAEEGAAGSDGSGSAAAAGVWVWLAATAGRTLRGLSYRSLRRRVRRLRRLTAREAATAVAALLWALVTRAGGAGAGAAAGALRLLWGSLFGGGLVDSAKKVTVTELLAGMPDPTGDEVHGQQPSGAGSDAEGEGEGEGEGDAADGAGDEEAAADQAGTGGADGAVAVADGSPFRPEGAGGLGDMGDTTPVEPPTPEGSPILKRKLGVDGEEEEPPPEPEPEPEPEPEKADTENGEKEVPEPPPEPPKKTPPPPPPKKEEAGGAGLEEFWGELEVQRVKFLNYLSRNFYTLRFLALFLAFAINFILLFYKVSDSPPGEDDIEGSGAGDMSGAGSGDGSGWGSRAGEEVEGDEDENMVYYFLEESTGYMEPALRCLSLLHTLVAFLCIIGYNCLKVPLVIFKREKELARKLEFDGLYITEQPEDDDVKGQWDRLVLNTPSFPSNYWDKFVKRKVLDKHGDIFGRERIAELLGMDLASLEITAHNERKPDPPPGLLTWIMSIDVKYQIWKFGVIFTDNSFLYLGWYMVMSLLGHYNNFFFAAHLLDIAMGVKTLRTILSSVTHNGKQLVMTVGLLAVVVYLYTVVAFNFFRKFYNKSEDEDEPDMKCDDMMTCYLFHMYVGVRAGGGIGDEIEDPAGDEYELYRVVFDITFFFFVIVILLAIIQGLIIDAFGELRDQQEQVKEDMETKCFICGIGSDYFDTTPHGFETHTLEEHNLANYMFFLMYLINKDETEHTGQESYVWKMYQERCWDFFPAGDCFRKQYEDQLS

intramolecular FRET efficiency (C-terminal CFP to FlAsH at H458) of construct 21 in ß1 KO myotubes (control without native ß1 subunits): 0.12
Substance: H458 CCPGCC ß1a-CFP (construct 21) (natural protein)

From article PMC4482598
